Data published in US11346848B2, “Γ-secretase stabilizing compound screening assay” (VIB VZW, priority 2017, dated 2022).

Columns and labels:
γ-secretase = conditions: Chávez-Gutiérrez et al., 2012; Funamoto et al., 2013; read-out: Km (substrate affinity constant); cited from earlier work
[1] = system: CC[C@H](C)[C@H](NC(=O)[C@@H](NC(=O)[C@@H](NC(=O)[C@H](C)NC(=O)[C@@H](NC(=O)[C@@H](NC(=O)[C@@H](NC(=O)CNC(=O)CNC(=O)[C@@H](NC(=O)[C@H](CCSC)NC(=O)[C@H](CC(C)C)NC(=O)CNC(=O)[C@@H](NC(=O)[C@@H](NC(=O)[C@H](C)NC(=O)CNC(=O)[C@H](CCCCN)NC(=O)[C@H](CC(N)=O)NC(=O)[C@H](CO)NC(=O)CNC(=O)[C@@H](NC(=O)[C@H](CC(=O)O)NC(=O)[C@H](CCC(=O)O)NC(=O)[C@H](C)NC(=O)[C@H](Cc1ccccc1)NC(=O)[C@H](Cc1ccccc1)NC(=O)[C@@H](NC(=O)[C@H](CC(C)C)NC(=O)[C@H](CCCCN)NC(=O)[C@H](CCC(N)=O)NC(=O)[C@H](Cc1c[nH]cn1)NC(=O)[C@H](Cc1c[nH]cn1)NC(=O)[C@@H](NC(=O)[C@H](CCC(=O)O)NC(=O)[C@H](Cc1ccc(O)cc1)NC(=O)CNC(=O)[C@H](CO)NC(=O)[C@H](CC(=O)O)NC(=O)[C@H](Cc1c[nH]cn1)NC(=O)[C@H](CCCNC(=N)N)NC(=O)[C@H](Cc1ccccc1)NC(=O)[C@H](CCC(=O)O)NC(=O)[C@H](C)NC(=O)[C@@H](N)CC(=O)O)C(C)C)C(C)C)C(C)C)[C@@H](C)CC)[C@@H](C)CC)C(C)C)C(C)C)C(C)C)[C@@H](C)CC)[C@@H](C)O)C(C)C)C(=O)O; test: purified protein, by the assay type
[2] = system: CC[C@H](C)[C@H](NC(=O)[C@H](C)NC(=O)CNC(=O)[C@H](CCCCN)NC(=O)[C@H](CC(N)=O)NC(=O)[C@H](CO)NC(=O)CNC(=O)[C@@H](NC(=O)[C@H](CC(=O)O)NC(=O)[C@H](CCC(=O)O)NC(=O)[C@H](C)NC(=O)[C@H](Cc1ccccc1)NC(=O)[C@H](Cc1ccccc1)NC(=O)[C@@H](NC(=O)[C@H](CC(C)C)NC(=O)[C@H](CCCCN)NC(=O)[C@H](CCC(N)=O)NC(=O)[C@H](Cc1c[nH]cn1)NC(=O)[C@H](Cc1c[nH]cn1)NC(=O)[C@@H](NC(=O)[C@H](CCC(=O)O)NC(=O)[C@H](Cc1ccc(O)cc1)NC(=O)CNC(=O)[C@H](CO)NC(=O)[C@H](CC(=O)O)NC(=O)[C@H](Cc1c[nH]cn1)NC(=O)[C@H](CCCNC(=N)N)NC(=O)[C@H](Cc1ccccc1)NC(=O)[C@H](CCC(=O)O)NC(=O)[C@H](C)NC(=O)[C@@H](N)CC(=O)O)C(C)C)C(C)C)C(C)C)C(=O)N[C@H](C(=O)NCC(=O)N[C@@H](CC(C)C)C(=O)N[C@@H](CCSC)C(=O)N[C@H](C(=O)NCC(=O)NCC(=O)N[C@H](C(=O)N[C@H](C(=O)N[C@H](C(=O)N[C@@H](C)C(=O)N[C@H](C(=O)N[C@H](C(=O)N[C@H](C(=O)N[C@H](C(=O)O)C(C)C)[C@@H](C)CC)C(C)C)[C@@H](C)O)[C@@H](C)CC)C(C)C)C(C)C)C(C)C)[C@@H](C)CC; test: purified protein, by the assay type

Q: Which Km (γ-secretase) does the source give for “APP-C99: human Amyloid beta precursor protein C99 fragment (99 aa), natural γ-secretase substrate” here?
A: 0.4 to 0.8 µM

Q: With “wild type human γ-secretase (PSEN1/APH1a) (Homo sapiens)” as the substance, how does the Km ([1]; other: 37° C., 37.0 °C) read?
A: 2.9 µM

Q: What about the Vmax ([1]; other: 37° C., 37.0 °C) of the same substance?
A: 545.2 nM/h

Q: What about the Km ([1]; other: 45° C., […]) of the same substance?
A: 1.7 µM

Q: And the Vmax ([1]; other: 45° C., […])?
A: 274.3 nM/h

Q: What about the Km ([1]; other: 51° C., […]) of the same substance?
A: 1.4 µM

Q: What about the Vmax ([1]; other: 51° C., […]) of the same substance?
A: 97.45 nM/h

Q: What about the Km ([1]; other: summary of Table 2) of the same substance?
A: 3 µM

Q: What about the Km ([2]; other: 37° C., 37.0 °C) of the same substance?
A: 3.3 µM

Q: What about the Vmax ([2]; other: 37° C., 37.0 °C) of the same substance?
A: 606.3 nM/h

Q: What about the Km ([2]; other: 51° C., […]) of the same substance?
A: 2.3 µM

Q: What about the Vmax ([2]; other: 51° C., […]) of the same substance?
A: 348.8 nM/h

Q: And the Km ([2]; other: summary of Table 2)?
A: 3 µM
